Results taken from paper PMC3057708 (Molecular Biology of the Cell, 2011).

B1: GST-Sec4 (natural protein)
chain: MSGLRTVSASSGNGKSYDSIMKILLIGDSGVGKSCLLVRFVEDKFNPSFITTIGIDFKIKTVDINGKKVKLQLWDTAGQERFRTITTAYYRGAMGIILVYDVTDERTFTNIKQWFKTVNEHANDEAQLLLVGNKSDMETRVVTADQGEALAKELGIPFIESSAKNDDNVNEIFFTLAKLIQEKIDSNKLVGVGNGKEGNISINSGSGNSSKSNCC
B2: purified full-length Sro7, soluble (natural protein)
chain: MFGSKRLKNVKEAFKSLKGQNSETPIENSKASFKSKNSKTSTISKDAKSSSSLKIPISSNNKNKIFSLAETNKYGMSSKPIAAAFDFTQNLLAIATVTGEVHIYGQQQVEVVIKLEDRSAIKEMRFVKGIYLVVINAKDTVYVLSLYSQKVLTTVFVPGKITSIDTDASLDWMLIGLQNGSMIVYDIDRDQLSSFKLDNLQKSSFFPAARLSPIVSIQWNPRDIGTVLISYEYVTLTYSLVENEIKQSFIYELPPFAPGGDFSEKTNEKRTPKVIQSLYHPNSLHIITIHEDNSLVFWDANSGHMIMARTVFETEINVPQPDYIRDSSTNAAKISKVYWMCENNPEYTSLLISHKSISRGDNQSLTMIDLGYTPRYSITSYEGMKNYYANPKQMKIFPLPTNVPIVNILPIPRQSPYFAGCHNPGLILLILGNGEIETMLYPSGIFTDKASLFPQNLSWLRPLATTSMAASVPNKLWLGALSAAQNKDYLLKGGVRTKRQKLPAEYGTAFITGHSNGSVRIYDASHGDIQDNASFEVNLSRTLNKAKELAVDKISFAAETLELAVSIETGDVVLFKYEVNQFYSVENRPESGDLEMNFRRFSLNNTNGVLVDVRDRAPTGVRQGFMPSTAVHANKGKTSAINNSNIGFVGIAYAAGSLMLIDRRGPAIIYMENIREISGAQSACVTCIEFVIMEYGDDGYSSILMVCGTDMGEVITYKILPASGGKFDVQLMDITNVTSKGPIHKIDAFSKETKSSCLATIPKMQNLSKGLCIPGIVLITGFDDIRLITLGKSKSTHKGFKYPLAATGLSYISTVEKNNDRKNLTVIITLEINGHLRVFTIPDFKEQMSEHIPFPIAAKYITESSVLRNGDIAIRVSEFQASLFSTVKEQDTLAPVSDTLYINGIRIPYRPQVNSLQWARGTVYCTPAQLNELLGGVNRPASKYKESIIAEGSFSERSSDDNNANHPEHQYTKPTRKGRNSSYGVLRNVSRAVETRWDAVEDRFNDYATAMGETMNEAVEQTGKDVMKGALGF

Key:
[1] = target: B2; experiment: pull-down
GST-Sec4 = target: B1; experiment: pull-down

binding result [1]	fold binding to GTPγS-bound Sec4 over GDP-bound Sec4 (GST-Sec4) [fold]	Binder
binds		B1
	> 5	B2
